Measured values as given in article PMC6821933, “IMP-68, a Novel IMP-Type Metallo-β-Lactamase in Imipenem-Susceptible Klebsiella pneumoniae” (mSphere, 2019).

Key:
IMP-11 [1] = tested on: T1, IMP-11; experiment: spectrophotometric initial hydrolysis rates, […] nm, Michaelis-Menten; type: biochemical; settings: 50 mM sodium phosphate pH 7.0, 50 μM ZnCl2, 24 ± 1 °C
T1 construct: gene blaIMP-11; signal peptide (first 19 aa) removed; His tag cut off with PreScission protease; expressed in E. coli Rosetta II

[2] = tested on: CC1(C)S[C@@H]2[C@H](NC(=O)[C@H](N)c3ccccc3)C(=O)N2[C@H]1C(=O)O; experiment: purified protein; type: biochemical, Klebsiella pneumoniae; settings: 50 mM sodium phosphate pH 7.0, 50 μM ZnCl2, 24 ± 1 °C, 24.0 °C
[3] = tested on: C[C@@H](O)[C@H]1C(=O)N2C(C(=O)O)=C(S[C@@H]3CN[C@H](C(=O)N(C)C)C3)[C@H](C)[C@H]12; experiment: purified protein; type: biochemical, Klebsiella pneumoniae; settings: 50 mM sodium phosphate pH 7.0, 50 μM ZnCl2, 24 ± 1 °C, 24.0 °C
[4] = tested on: CC(C)(O/N=C(\C(=O)N[C@@H]1C(=O)N2C(C(=O)[O-])=C(C[n+]3ccccc3)CS[C@H]12)c1csc(N)n1)C(=O)O; experiment: purified protein; type: biochemical, Klebsiella pneumoniae; settings: 50 mM sodium phosphate pH 7.0, 50 μM ZnCl2, 24 ± 1 °C, 24.0 °C
[5] = tested on: CO/N=C(\C(=O)N[C@@H]1C(=O)N2C(C(=O)O)=C(COC(C)=O)CS[C@H]12)c1csc(N)n1; experiment: purified protein; type: biochemical, Klebsiella pneumoniae; settings: 50 mM sodium phosphate pH 7.0, 50 μM ZnCl2, 24 ± 1 °C, 24.0 °C
[6] = tested on: C[C@@H](O)[C@H]1C(=O)N2C(C(=O)O)=C(SCCN=CN)C[C@H]12; experiment: purified protein; type: biochemical, Klebsiella pneumoniae; settings: 50 mM sodium phosphate pH 7.0, 50 μM ZnCl2, 24 ± 1 °C, 24.0 °C
IMP-11 [7] = tested on: T1, IMP-11; experiment: spectrophotometric initial hydrolysis rates, […] nm, Michaelis-Menten; type: biochemical; settings: 50 mM sodium phosphate pH 7.0, 50 μM ZnCl2, 24 ± 1 °C; remark: listed apart in the source
IMP-11 [8] = tested on: T1, IMP-11; experiment: as above; type: biochemical; settings: 50 mM sodium phosphate pH 7.0, 50 μM ZnCl2, 24 ± 1 °C; remark: listed apart in the source

For `CO/N=C(\C(=O)N[C@@H]1C(=O)N2C(C(=O)O)=C(COC(C)=O)CS[C@H]12)c1csc(N)n1` [Cefotaxime], the Km (IMP-11 [1]) was 11.8 ± 2.2 µM.
Work on `CC(C)(O/N=C(\C(=O)N[C@@H]1C(=O)N2C(C(=O)[O-])=C(C[n+]3ccccc3)CS[C@H]12)c1csc(N)n1)C(=O)O` [Ceftazidime] yielded a Km (IMP-11 [1]) of 232 ± 18.9 µM.
With IMP-68 (Klebsiella pneumoniae) the Km [2] was 465 ± 200 µM, the kcat [2] was 1.7 ± 0.44 s⁻¹ and the kcat/Km [2] was 3700 M⁻¹ s⁻¹. For the same compound, the Km [3] was 10.1 ± 0.94 µM, the kcat [3] was 9.7 ± 1.7 s⁻¹ and the kcat/Km [3] was 890000 M⁻¹ s⁻¹. The Km [4] was 326 ± 131 µM, the kcat [4] was 3.9 ± 2.1 s⁻¹ and the kcat/Km [4] was 12000 M⁻¹ s⁻¹. The Km [5] was 10.3 ± 2.3 µM, the kcat [5] was 25.7 ± 1.3 s⁻¹ and the kcat/Km [5] was 2.5e+06 M⁻¹ s⁻¹. The Km [6] was 347 ± 52.2 µM, the kcat [6] was 36.7 ± 7.8 s⁻¹ and the kcat/Km [6] was 110000 M⁻¹ s⁻¹.
In the case of `C[C@@H](O)[C@H]1C(=O)N2C(C(=O)O)=C(SCCN=CN)C[C@H]12` [Imipenem], the Km (IMP-11 [7]) is reported as 41 ± 18.4 µM.
With `C[C@@H](O)[C@H]1C(=O)N2C(C(=O)O)=C(S[C@@H]3CN[C@H](C(=O)N(C)C)C3)[C@H](C)[C@H]12` [Meropenem] the Km (IMP-11 [7]) was 14.8 ± 2.8 µM.
Work on `CC1(C)S[C@@H]2[C@H](NC(=O)[C@H](N)c3ccccc3)C(=O)N2[C@H]1C(=O)O` [Ampicillin] yielded a Km (IMP-11 [8]) of 830 ± 248 µM.
